{
  "source": "paper PMC8125230",
  "about": "“Crystal Structure of Escherichia coli Agmatinase: Catalytic Mechanism and Residues Relevant for Substrate Specificity” (International Journal of Molecular Sciences, 2021)",
  "proteins": {"B1": {"name": "Agmatinase from Escherichia coli (enzyme)", "chain": "MSTLGHQYDNSLVSNAFGFLRLPMNFQPYDSDADWVITGVPFDMATSGRAGGRHGPAAIRQVSTNLAWEHNRFPWNFDMRERLNVVDCGDLVYAFGDAREMSEKLQAHAEKLLAAGKRMLSFGGDHFVTLPLLRAHAKHFGKMALVHFDAHTDTYANGCEFDHGTMFYTAPKEGLIDPNHSVQIGIRTEFDKDNGFTVLDACQVNDRSVDDVIAQVKQIVGDMPVYLTFDIDCLDPAFAPGTGTPVIGGLTSDRAIKLVRGLKDLNIVGMDVVEVAPAYDQSEITALAAATLALEMLYIQAAKKGE", "notes": "Agmatinase (EcAGM), Escherichia coli; wild type; gene cloned into pQE60; residues 11 to 26 of the N-terminal end are modeled in the structure; The hexamer (dimer of trimers) is built by crystal symmetry: 7LOL has one chain and 7LOX three chains in the asymmetric unit; also called EcAGM; E. coli AGM; source: E. coli BL21(DE3), purified (HisTrap HP, S-200 size exclusion)"}},
  "biological_target": "the molecule itself",
  "test": "crystal structure; sitting drop vapor diffusion at 18 °C; protein 12 mg/mL in 25 mM Tris-HCl pH 8.0, 2 mM MnCl2, 100 mM guanidine chloride; two crystal forms (7LOL at 1.8 Å, 7LOX at 3.2 Å); oligomeric state analysed with PISA",
  "data": [
    {"protein": "B1", "values": [
      {"measurement": "stoichiometry N", "value": 6}
    ]}
  ]
}
